In this assay the target is untagged full-length RAC1 Q61L (UniProt P63000 1-192, Q61L). The assay is described as follows: SPR.

Data on one molecule can be found in publication doi:10.1101/2020.12.04.411645 (bioRxiv, 2020).

B1: MBP-tagged full-length CYRI-B (natural protein)
chain: MGNLLKVLTCTDLEQGPNFFLDFENAQPTESEKEIYNQVNVVLKDAEGILEDLQSYRGAGHEIREAIQHPADEKLQEKAWGAVVPLVGKLKKFYEFSQRLEAALRGLLGALTSTPYSPTQHLEREQALAKQFAEILHFTLRFDELKMTNPAIQNDFSYYRRTLSRMRINNVPAEGENEVNNELANRMSLFYAEATPMLKTLSDATTKFVSENKNLPIENTTDCLSTMASVCRVMLETPEYRSRFTNEETVSFCLRVMVGVIILYDHVHPVGAFAKTSKIDMKGCIKVLKDQPPNSVEGLLNALRYTTKHLNDETTSKQIRSMLQ
For B1, the affinity, expressed as Kd, was 18.3 µM.
